PMC4874933
No end group written: not given here.

Biological target: fibrils composed of synthetic human λ6 variable domain (rVλ6Wil) (human)
Experiment: co-sedimentation

% bound: 58%
B1: Tc-99m labeled GGGY-p5+14 peptide (peptide)
peptide: GGGYSKAQKAQAKQAKQAQKAQKAQAKQAKQAQKAQKAQAKQAKQA
modifications: also: Tc-99m label coupled directly, site not characterised
